What was measured:
[1] = target: T1, Aβ1-42 fibrils (Aβ1-42 peptide, Bachem H-1368) (UniProt P05067 672-713); assay: SPR (Biacore T200), antibody flowed over amine-coupled Aβ1-42 fibrils, 1:1 fit, apparent KD
T1 construct: domain: Aβ1-42; Fibrils were immobilized on the sensor chip by amine coupling, so this is a multimeric aggregate; also called fibrillar Aβ1-42; immobilized Aβ1-42 fibrils

[2] = target: T1, Aβ1-42 fibrils (Aβ1-42 peptide, Bachem …); assay: SPR (Biacore T200): Aβ1-42 fibrils immobilised on the sensor chip by amine coupling, antibody injected at 5-50 nM, global fit to a 1:1 binding model
[3] = target: T1, Aβ1-42 fibrils (Aβ1-42 peptide, Bachem …); assay: SPR (Biacore T200), scFv-IgG flowed over amine-coupled Aβ1-42 fibrils, 1:1 fit, apparent KD
[4] = target: T1, Aβ1-42 fibrils (Aβ1-42 peptide, Bachem …); assay: SPR (Biacore T200): Aβ1-42 fibrils immobilised on the sensor chip by amine coupling, scFv-IgG injected at 5-50 nM, global fit to a 1:1 binding model

T1 sequence (P05067 672-713 limits assumed): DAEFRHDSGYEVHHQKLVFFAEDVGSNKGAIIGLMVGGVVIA

| Binder | Kd [1] | Kd [2] | Kd [3] | Kd [4] |
| --- | --- | --- | --- | --- |
| parental 13C3 anti-amyloid beta antibody (murine IgG) (antibody, V domains shown, The SPR text says only 'parental IgG' or 'parental antibody'; The scFv-IgG derives from the murine 13C3 antibody (mouse IgG1); also called parental IgG; parental antibody) VH: EVQLQQSGPEVVKPGVSVKISCKGSGYTFTDYAMHWVKQSPGKSLEWIGVISTKYGKTNYNPSFQGQATMTVDKSSSTAYMELASLKASDSAIYYCARGDDGYSWGQGTSVTVSS VL: EIVMTQTPLSLPVSLGDRASISCRSGQSLVHSNGNTYLHWYLQKPGQSPKLLIYTVSNRFSGVPDRFSGSGSGSDFTLTISRVEAEDLGVYFCSQNTFVPWTFGGGTKLEIK | 0.13 nM | 0.132 nM | – | – |
| anti-Aβ scFv-IgG (Fc fusion, Disulfide-linked homodimer; For SPR the protein was expressed in Expi293 cells and purified by IMAC; also called silent scFv-IgG; AAV-scFv-IgG (vector-expressed form)) scFv: SEIVMTQTPLSLPVSLGDRASISCRSGQSLVHSNGNTYLHWYLQKPGQSPKLLIYTVSNRFSGVPDRFSGSGSGSDFTLTISRVEAEDLGVYFCSQNTFVPWTFGGGTKLEIKRTSSGGGGSGGGGSGGGGSEVQLQQSGPEVVKPGVSVKISCKGSGYTFTDYAMHWVKQSPGKSLEWIGVISTKYGKTNYNPSFQGQATMTVDKSSSTAYMELASLKASDSAIYYCARGDDGYSWGQGTSVTVSSASTGGGGGGGGGSGVPRDCGCKPCICTVPEVSSVFIFPPKPKDVLTITLTPKVTCVVVDISKDDPEVQFSWFVDDVEVHTAQTQPREEQFASTFRSVSELPIMHQDWLNGKEFKCRVNSAAFPAPIEKTISKTKGRPKAPQVYTIPPPKEQMAKDKVSLTCMITDFFPEDITVEWQWNGQPAENYKNTQPIMDTDGSYFVYSKLNVQKSNWEAGNTFTCSVLHEGLHNHHTEKSLSHSPGSGSGSGSHHHHHH | – | – | 0.52 nM | 0.525 nM |

Reference: patent US20220213506A1 (Sanofi, published 2022)
